For experiment [1], the target named is CD46, human (human) (UniProt P15529). The experiment can be described thus: flow cytometry; directly labelled antibody on wild-type SK-OV-3 cells. Background: In flow cytometry, cells or beads pass a laser one at a time.
The target is the same in experiment [2]. The experiment can be described thus: flow cytometry; directly labelled antibody on siRNA knockdown SK-OV-3 cells.
The target in experiment [3] is CD59, human (human) (UniProt P13987). The experiment can be described thus: flow cytometry; directly labelled antibody on wild-type SK-OV-3 cells.
UniProt P13987, sequence (P13987 26-102): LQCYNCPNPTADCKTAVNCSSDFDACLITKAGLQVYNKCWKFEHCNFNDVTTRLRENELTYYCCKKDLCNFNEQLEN
Experiment [4] shares this target. The experiment can be described thus: flow cytometry; directly labelled antibody on siRNA knockdown SK-OV-3 cells.
In experiment [5] the target is CD55, human (human) (UniProt P08174). The experiment can be described thus: flow cytometry; directly labelled antibody on wild-type SK-OV-3 cells.
UniProt P08174, sequence (P08174 35-353): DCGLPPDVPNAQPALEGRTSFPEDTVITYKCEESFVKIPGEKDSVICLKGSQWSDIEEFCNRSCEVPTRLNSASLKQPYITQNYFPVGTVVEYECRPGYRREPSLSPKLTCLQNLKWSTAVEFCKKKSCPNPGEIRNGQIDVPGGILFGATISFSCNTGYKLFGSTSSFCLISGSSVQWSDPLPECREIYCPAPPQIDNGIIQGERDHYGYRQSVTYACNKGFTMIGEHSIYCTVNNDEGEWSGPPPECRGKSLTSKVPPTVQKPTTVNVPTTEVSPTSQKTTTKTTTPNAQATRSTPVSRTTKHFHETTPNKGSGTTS
The target is the same in experiment [6]. The experiment can be described thus: flow cytometry; directly labelled antibody on siRNA knockdown SK-OV-3 cells.
In experiment [7] the target is CD46, human (human) (UniProt P15529). Nature of the experiment: FACS titration on carcinoma cells, secondary antibody; dilution 1/500, final 0.2 µg/ml.
Experiment [8] has the same target. Nature of the experiment: FACS titration on carcinoma cells, secondary antibody; dilution 1/100, final 1 µg/ml.
Experiment [9] has the same target. The experiment can be described thus: FACS titration on carcinoma cells; dilution just sufficient for a saturated staining.
For experiment [10] the target is unchanged. The experiment can be described thus: FACS titration on carcinoma cells, secondary antibody; dilution 1/1000, final 0.1 µg/ml.
Experiment [11] has the same target. The experiment can be described thus: FACS titration on carcinoma cells, secondary antibody; dilution 1/10, final 10 µg/ml.
For experiment [12] the target is unchanged. The experiment can be described thus: FACS titration on carcinoma cells, secondary antibody; dilution 1/5000, final 0.02 µg/ml.
For experiment [13] the target is unchanged. The experiment can be described thus: FACS titration on carcinoma cells, secondary antibody; dilution 1/10000, final 0.01 µg/ml.
Experiment [14] has the same target. The experiment can be described thus: FACS titration on carcinoma cells, secondary antibody; dilution 1/10, final 100 µg/ml.
Experiment [15] shares this target. Nature of the experiment: FACS titration on carcinoma cells, secondary antibody; dilution 1/500, final 2 µg/ml.
For experiment [16] the target is unchanged. The experiment can be described thus: FACS titration on carcinoma cells, secondary antibody; dilution 1/10000, final 0.1 µg/ml.
For experiment [17] the target is unchanged. The experiment can be described thus: FACS titration on carcinoma cells, secondary antibody; dilution 1/5000, final 0.2 µg/ml.
For experiment [18] the target is unchanged. Nature of the experiment: FACS titration on carcinoma cells, secondary antibody; dilution 1/1000, final 1 µg/ml.
For experiment [19] the target is unchanged. The experiment can be described thus: FACS titration on carcinoma cells, secondary antibody; dilution 1/100, final 10 µg/ml.
The target of experiment [20] is CD55, human (human) (UniProt P08174). The experiment can be described thus: FACS titration on carcinoma cells, secondary antibody; dilution 1/10, final 100 µg/ml.
For experiment [21] the target is unchanged. The experiment can be described thus: FACS titration on carcinoma cells; dilution just sufficient for a saturated staining.
For experiment [22] the target is unchanged. Nature of the experiment: FACS titration on carcinoma cells, secondary antibody; dilution 1/500, final 2 µg/ml.
Experiment [23] shares this target. The experiment can be described thus: FACS titration on carcinoma cells, secondary antibody; dilution 1/10000, final 0.1 µg/ml.
For experiment [24] the target is unchanged. Nature of the experiment: FACS titration on carcinoma cells, secondary antibody; dilution 1/5000, final 0.2 µg/ml.
For experiment [25] the target is unchanged. Nature of the experiment: FACS titration on carcinoma cells, secondary antibody; dilution 1/1000, final 1 µg/ml.
The target is the same in experiment [26]. The experiment can be described thus: FACS titration on carcinoma cells, secondary antibody; dilution 1/100, final 10 µg/ml.
Experiment [27] addresses CD59, human (human) (UniProt P13987). The experiment can be described thus: FACS titration on carcinoma cells, secondary antibody; dilution 1/10, final 100 µg/ml.
Experiment [28] has the same target. The experiment can be described thus: FACS titration on carcinoma cells; dilution just sufficient for a saturated staining.
Experiment [29] has the same target. Nature of the experiment: FACS titration on carcinoma cells, secondary antibody; dilution 1/500, final 2 µg/ml.
The target is the same in experiment [30]. Nature of the experiment: FACS titration on carcinoma cells, secondary antibody; dilution 1/10000, final 0.1 µg/ml.
Experiment [31] shares this target. Nature of the experiment: FACS titration on carcinoma cells, secondary antibody; dilution 1/5000, final 0.2 µg/ml.
For experiment [32] the target is unchanged. The experiment can be described thus: FACS titration on carcinoma cells, secondary antibody; dilution 1/1000, final 1 µg/ml.
The target is the same in experiment [33]. The experiment can be described thus: FACS titration on carcinoma cells, secondary antibody; dilution 1/100, final 10 µg/ml.

UniProt P15529, sequence (P15529 35-392): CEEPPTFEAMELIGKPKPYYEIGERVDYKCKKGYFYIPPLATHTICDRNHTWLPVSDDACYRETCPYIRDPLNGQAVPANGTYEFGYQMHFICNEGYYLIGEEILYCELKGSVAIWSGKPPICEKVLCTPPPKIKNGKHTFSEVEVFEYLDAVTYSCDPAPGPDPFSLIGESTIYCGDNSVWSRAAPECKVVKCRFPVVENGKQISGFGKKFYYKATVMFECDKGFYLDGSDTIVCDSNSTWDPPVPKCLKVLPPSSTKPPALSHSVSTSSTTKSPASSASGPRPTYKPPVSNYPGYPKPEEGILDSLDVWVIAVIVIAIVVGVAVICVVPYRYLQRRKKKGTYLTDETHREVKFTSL

For “anti-CD46-FITC antibody (BD Pharmingen, Cat. No. 555949)”, the FACS signal (FITC) in the experiment with CD46, human (human) [1] is 683 FITC signal; in the experiment with CD46, human (human) [2], 662 FITC signal.

As to “anti-CD59-PE antibody (BD Pharmingen, Cat. No. 555764)”, the FACS signal (PE) with CD59, human (human) [3] was found to be 1190 PE signal; with CD59, human (human) [4], 649 PE signal.

Regarding “anti-CD-55-APC antibody (BD Pharmingen, Cat. No. 555696)”, the FACS signal (APC) stood at 1450 APC signal with CD55, human (human) [5] and 275 APC signal with CD55, human (human) [6].

Take “anti-human CD46 antibody #383, clone M177 (Hycult, HM2103)”: the Geom. Mean. FITC (geom. mean FITC) with CD46, human (human) [7] stood at 74000; with CD46, human (human) [8] it was 81800; with CD46, human (human) [10] it was 50000; with CD46, human (human) [11] it was 84000; in the experiment with CD46, human (human) [12], 15800; with CD46, human (human) [13], 14000. The 1x conc. (1-time saturating concentration) with CD46, human (human) [9] was 0.3 µg/mL.

For “anti-human CD46 antibody #386, clone MEM258 (AbD Serotec, MCA2113)”, the Geom. Mean. FITC (geom. mean FITC) is 87600 with CD46, human (human) [14]; 75500 with CD46, human (human) [15]; 53500 in the experiment with CD46, human (human) [16]; 66400 with CD46, human (human) [17]; 75200 with CD46, human (human) [18]; 79500 with CD46, human (human) [19]. Besides, the 1x conc. (1-time saturating concentration) with CD46, human (human) [9] came to 0.2 µg/mL.

As for “anti-human CD55 antibody #387, clone BRIC216 (AbD Serotec, MCA914)”, the Geom. Mean. FITC (geom. mean FITC) in the experiment with CD55, human (human) [20] came to 32000; with CD55, human (human) [22], 25200; in the experiment with CD55, human (human) [23] it was 24100; in the experiment with CD55, human (human) [24], 23700; with CD55, human (human) [25], 25100; with CD55, human (human) [26], 26900. Further, in the experiment with CD55, human (human) [21], the 1x conc. (1-time saturating concentration) is 0.1 µg/mL.

“anti-human CD59 antibody #384, clone MEM43 (antibodies online, ABIN118751)”: the Geom. Mean. FITC (geom. mean FITC) with CD59, human (human) [27] came out at 95200; in the experiment with CD59, human (human) [29] it was 95500; with CD59, human (human) [30] it was 82400; with CD59, human (human) [31] it was 94000; with CD59, human (human) [32], 95500; in the experiment with CD59, human (human) [33], 95500. The 1x conc. (1-time saturating concentration) with CD59, human (human) [28] was found to be 0.2 µg/mL.

Take “anti-human CD59 antibody #385, clone YTH53.1 (AbD Serotec, MCA715G)”: the Geom. Mean. PE (geom. mean PE) with CD59, human (human) [27] came out at 55400; with CD59, human (human) [29], 62700; with CD59, human (human) [30] it was 50100; with CD59, human (human) [31], 53800; with CD59, human (human) [32], 60500; in the experiment with CD59, human (human) [33], 64200. For the same substance, the 1x conc. (1-time saturating concentration) with CD59, human (human) [28] is 0.1 µg/mL.

Values taken from patent publication US20190241661A1.
